The values below come from PMC2746243.

The test deals with mutant M9R α-tropomyosin_(slow) (human) (UniProt P06753). Put plainly: far-Western, overlay or dot blot.
Sequence of UniProt P06753 (P06753 whole entry M9R): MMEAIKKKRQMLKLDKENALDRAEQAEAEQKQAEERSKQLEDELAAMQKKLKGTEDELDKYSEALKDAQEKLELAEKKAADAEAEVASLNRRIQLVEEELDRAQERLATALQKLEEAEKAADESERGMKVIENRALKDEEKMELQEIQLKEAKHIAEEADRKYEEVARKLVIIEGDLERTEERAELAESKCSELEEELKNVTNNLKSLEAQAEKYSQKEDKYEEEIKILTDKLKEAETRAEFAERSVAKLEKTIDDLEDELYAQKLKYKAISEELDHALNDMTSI

With “Recombinant human Tmod1 protein (from UniProt P28289 1-359) (natural protein)”, the percent of the binding to wild-type α-tropomyosin (slow) came to 10%.
